± gives the standard deviation of the averaged measurements.
Assay: total protein half-life in vivo (active degradation + dilution); higher = more stable protein
[1] = E. coli NCM3722 delta-clpP delta-lon delta-hslV, growth: N-lim chemostat, doubling time 6 h
[2] = E. coli NCM3722 delta-clpP, growth: N-lim chemostat, doubling time 6 h
[3] = E. coli NCM3722 delta-hslV, growth: N-lim chemostat, doubling time 6 h
[4] = E. coli NCM3722 delta-lon, growth: N-lim chemostat, doubling time 6 h
[5] = E. coli NCM3722 delta-smpB, growth: N-lim chemostat, doubling time 6 h
[6] = wild type E. coli NCM3722, growth: N-lim chemostat, doubling time 12 h
[7] = wild type E. coli NCM3722, growth: P-lim chemostat, doubling time 6 h
[8] = wild type E. coli NCM3722, growth: C-lim chemostat, doubling time 3 h
[9] = wild type E. coli NCM3722, growth: C-lim chemostat, doubling time 6 h
[10] = wild type E. coli NCM3722, growth: C-lim chemostat, doubling time 12 h
[11] = wild type E. coli NCM3722, growth: N-lim chemostat, doubling time 6 h
[12] = wild type E. coli NCM3722, growth: P-lim chemostat, doubling time 12 h

MLLPWLILIPFIGGFLCWQTERFGVKVPRWIALITMGLTLALSLQLWLQGGYSLTQSAGIPQWQSEFDMPWIPRFGISIHLAIDGLSLLMVVLTGLLGVLAVLCSWKEIEKYQGFFHLNLMWILGGVIGVFLAIDMFLFFFFWEMMLVPMYFLIALWGHKASDGKTRITAATKFFIYTQASGLVMLIAILALVFVHYNATGVWTFNYEELLNTPMSSGVEYLLMLGFFIAFAVKMPVVPLHGWLPDAHSQAPTAGSVDLAGILLKTAAYGLLRFSLPLFPNASAEFAPIAMWLGVIGIFYGAWMAFAQTDIKRLIAYTSVSHMGFVLIAIYTGSQLAYQGAVIQMIAHGLSAAGLFILCGQLYERIHTRDMRMMGGLWSKMKWLPALSLFFAVATLGMPGTGNFVGEFMILFGSFQVVPVITVISTFGLVFASVYSLAMLHRAYFGKAKSQIASQELPGMSLRELFMILLLVVLLVLLGFYPQPILDTSHSAIGNIQQWFVNSVTTTRP [P0AFE8]
total protein half-life in vivo [1]: 7.36 ± 0.89 h | total protein half-life in vivo [2]: 6.54 ± 0.28 h | total protein half-life in vivo [3]: 5.66 ± 0.85 h | total protein half-life in vivo [4]: 6.41 ± 0.17 h | total protein half-life in vivo [5]: 6.818 ± 0.033 h | total protein half-life in vivo [6]: 12.04 ± 0.017 h | total protein half-life in vivo [7]: 6.24 ± 0.25 h

MLNNAMSVVILAAGKGTRMYSDLPKVLHTLAGKAMVQHVIDAANELGAAHVHLVYGHGGDLLKQALKDDNLNWVLQAEQLGTGHAMQQAAPFFADDEDILMLYGDVPLISVETLQRLRDAKPQGGIGLLTVKLDDPTGYGRITRENGKVTGIVEHKDATDEQRQIQEINTGILIANGADMKRWLAKLTNNNAQGEYYITDIIALAYQEGREIVAVHPQRLSEVEGVNNRLQLSRLERVYQSEQAEKLLLAGVMLRDPARFDLRGTLTHGRDVEIDTNVIIEGNVTLGHRVKIGTGCVIKNSVIGDDCEISPYTVVEDANLAAACTIGPFARLRPGAELLEGAHVGNFVEMKKARLGKGSKAGHLTYLGDAEIGDNVNIGAGTITCNYDGANKFKTIIGDDVFVGSDTQLVAPVTVGKGATIAAGTTVTRNVGENALAISRVPQTQKEGWRRPVKKK [P0ACC7]
total protein half-life in vivo [1]: 6.48 ± 0.94 h | total protein half-life in vivo [2]: 5.96 ± 1.1 h | total protein half-life in vivo [3]: 5.08 ± 0.11 h | total protein half-life in vivo [4]: 5.46 ± 0.28 h | total protein half-life in vivo [5]: 4.93 ± 0.12 h | total protein half-life in vivo [8]: 2.92 ± 0.096 h | total protein half-life in vivo [9]: 5.9 ± 0.48 h | total protein half-life in vivo [10]: 11.8 ± 0.66 h | total protein half-life in vivo [11]: 5.122 ± 0.044 h | total protein half-life in vivo [6]: 9.31 ± 0.57 h | total protein half-life in vivo [7]: 5.96 ± 0.37 h | total protein half-life in vivo [12]: 12.9 ± 0.34 h

MLNPIVRKFQYGQHTVTLETGMMARQATAAVMVSMDDTAVFVTVVGQKKAKPGQDFFPLTVNYQERTYAAGRIPGSFFRREGRPSEGETLIARLIDRPIRPLFPEGFVNEVQVIATVVSVNPQVNPDIVAMIGASAALSLSGIPFNGPIGAARVGYINDQYVLNPTQDELKESKLDLVVAGTEAAVLMVESEAQLLSEDQMLGAVVFGHEQQQVVIQNINELVKEAGKPRWDWQPEPVNEALNARVAALAEARLSDAYRITDKQERYAQVDVIKSETIATLLAEDETLDENELGEILHAIEKNVVRSRVLAGEPRIDGREKDMIRGLDVRTGVLPRTHGSALFTRGETQALVTATLGTARDAQVLDELMGERTDTFLFHYNFPPYSVGETGMVGSPKRREIGHGRLAKRGVLAVMPDMDKFPYTVRVVSEITESNGSSSMASVCGASLALMDAGVPIKAAVAGIAMGLVKEGDNYVVLSDILGDEDHLGDMDFKVAGSRDGISALQMDIKIEGITKEIMQVALNQAKGARLHILGVMEQAINAPRGDISEFAPRIHTIKINPDKIKDVIGKGGSVIRALTEETGTTIEIEDDGTVKIAATDGEKAKHAIRRIEEITAEIEVGRVYTGKVTRIVDFGAFVAIGGGKEGLVHISQIADKRVEKVTDYLQMGQEVPVKVLEVDRQGRIRLSIKEATEQSQPAAAPEAPAAEQGE
total protein half-life in vivo [1]: 6.65 ± 0.71 h | total protein half-life in vivo [2]: 6.67 ± 0.63 h | total protein half-life in vivo [3]: 5.92 ± 0.65 h | total protein half-life in vivo [4]: 6.01 ± 0.18 h | total protein half-life in vivo [5]: 5.58 ± 0.41 h | total protein half-life in vivo [8]: 3.25 ± 0.055 h | total protein half-life in vivo [9]: 6.31 ± 0.21 h | total protein half-life in vivo [10]: 11.5 ± 0.16 h | total protein half-life in vivo [11]: 5.78 ± 0.26 h | total protein half-life in vivo [6]: 11.8 ± 0.57 h | total protein half-life in vivo [7]: 6.05 ± 0.14 h | total protein half-life in vivo [12]: 12.4 ± 1.5 h

MLNQELELSLNMAFARAREHRHEFMTVEHLLLALLSNPSAREALEACSVDLVALRQELEAFIEQTTPVLPASEEERDTQPTLSFQRVLQRAVFHVQSSGRNEVTGANVLVAIFSEQESQAAYLLRKHEVSRLDVVNFISHGTRKDEPTQSSDPGSQPNSEEQAGGEERMENFTTNLNQLARVGGIDPLIGREKELERAIQVLCRRRKNNPLLVGESGVGKTAIAEGLAWRIVQGDVPEVMADCTIYSLDIGSLLAGTKYRGDFEKRFKALLKQLEQDTNSILFIDEIHTIIGAGAASGGQVDAANLIKPLLSSGKIRVIGSTTYQEFSNIFEKDRALARRFQKIDITEPSIEETVQIINGLKPKYEAHHDVRYTAKAVRAAVELAVKYINDRHLPDKAIDVIDEAGARARLMPVSKRKKTVNVADIESVVARIARIPEKSVSQSDRDTLKNLGDRLKMLVFGQDKAIEALTEAIKMARAGLGHEHKPVGSFLFAGPTGVGKTEVTVQLSKALGIELLRFDMSEYMERHTVSRLIGAPPGYVGFDQGGLLTDAVIKHPHAVLLLDEIEKAHPDVFNILLQVMDNGTLTDNNGRKADFRNVVLVMTTNAGVRETERKSIGLIHQDNSTDAMEEIKKIFTPEFRNRLDNIIWFDHLSTDVIHQVVDKFIVELQVQLDQKGVSLEVSQEARNWLAEKGYDRAMGARPMARVIQDNLKKPLANELLFGSLVDGGQVTVALDKEKNELTYGFQSAQKHKAEAAH [P0ABH9]
total protein half-life in vivo [1]: 6.61 ± 0.43 h | total protein half-life in vivo [2]: 6.29 ± 0.55 h | total protein half-life in vivo [3]: 0.877 ± 0.22 h | total protein half-life in vivo [4]: 0.987 ± 0.069 h | total protein half-life in vivo [5]: 0.823 ± 0.015 h | total protein half-life in vivo [8]: 0.7994 ± 0.0018 h | total protein half-life in vivo [9]: 0.97 ± 0.039 h | total protein half-life in vivo [10]: 1.14 ± 0.28 h | total protein half-life in vivo [11]: 1.03 ± 0.18 h | total protein half-life in vivo [6]: 1.046 ± 0.0038 h | total protein half-life in vivo [7]: 0.795 ± 0.2 h | total protein half-life in vivo [12]: 1.56 ± 0.78 h

MLNQKIQNPNPDELMIEVDLCYELDPYELKLDEMIEAEPEPEMIEGLPASDALTPADRYLELFEHVQSAKIFPDSKTFPDCAPKMDPLDILIRYRKVRRHRDFDLRKFVENHFWLPEVYSSEYVSDPQNSLKEHIDQLWPVLTREPQDHIPWSSLLALPQSYIVPGGRFSETYYWDSYFTMLGLAESGREDLLKCMADNFAWMIENYGHIPNGNRTYYLSRSQPPVFALMVELFEEDGVRGARRYLDHLKMEYAFWMDGAESLIPNQAYRHVVRMPDGSLLNRYWDDRDTPRDESWLEDVETAKHSGRPPNEVYRDLRAGAASGWDYSSRWLRDTGRLASIRTTQFIPIDLNAFLFKLESAIANISALKGEKETEALFRQKASARRDAVNRYLWDDENGIYRDYDWRREQLALFSAAAIVPLYVGMANHEQADRLANAVRSRLLTPGGILASEYETGEQWDKPNGWAPLQWMAIQGFKMYGDDLLGDEIARSWLKTVNQFYLEQHKLIEKYHIADGVPREGGGGEYPLQDGFGWTNGVVRRLIGLYGEP
total protein half-life in vivo [1]: 5.33 ± 0.21 h | total protein half-life in vivo [2]: 3.703 ± 0.019 h | total protein half-life in vivo [3]: 2.44 ± 0.17 h | total protein half-life in vivo [4]: 2.97 ± 0.09 h | total protein half-life in vivo [5]: 2.61 ± 0.21 h | total protein half-life in vivo [8]: 1.15 h | total protein half-life in vivo [9]: 2.95 h | total protein half-life in vivo [10]: 3.87 ± 0.14 h | total protein half-life in vivo [11]: 2.47 ± 0.1 h | total protein half-life in vivo [6]: 3.37 ± 0.04 h | total protein half-life in vivo [7]: 2.42 ± 0.43 h | total protein half-life in vivo [12]: 4.75 ± 0.37 h

— the supplement of paper PMC11246515
